Data reported in patent US7460961B2, “N-TRADD active site and uses thereof” (Genetics Institute, LLC, priority 2000, dated 2008).

Assay: Solubility and stability of the N-TRADD NMR sample
Format: physicochemical
From the text: Cloning and site directed mutagenesis: The DNA sequence coding for the first 169 amino acids from N-TRADD was cloned in pRSETB (Invitrogen) after amplification by PCR. The primer at the 5′ end introduces an NdeI site upstream from the initiation site, and the primer at the 3′ end introduces a His tag after aa169. The sequence was confirmed by sequencing analysis. Single point mutations were introduced using Chameleon double-stranded site directed mutagenesis (Stratagene). The C-TRAF2 sequence (residues 262 to 501 of human TRAF2) was amplified by PCR using a 5′ end primer flanking with an XhoI and NdeI site, which introduces a Met before residue 262, and a 3′ end primer introducing 6×His before a stop codon followed by a NcoI site. The C-TRAF2 sequence was cloned into pAcSG2 (Pharmingen) by XhoI and NcoI sites for baculovirus expression. Protein expression and purification: The polypeptide for N-TRADD (1-169) was overexpressed in BL-21 E. coli. [U-^15N] or [U-^13C, U-^15N]. N-TRADD was purified from cells grown at 25° C. on minimal medium containing 2 g/L […] or [^15N]ammonium sulfate and 2 g/L [U-^13C]glucose. […]
Structure Determination: The structure of N-TRADD was determined from 2302 NMR derived restraints obtained using uniformly ^15N and ^15N/^13C labeled protein, with double and triple resonance NMR experiments. […]

B1: N-TRADD: N-terminal domain (amino acid residues 1-169, SEQ ID NO:1) of human TNFR-1 associated death domain protein (protein)
chain: MAAGQNGHEWVGSAYLFVESSLDKVVLSDAYAHPQQKVAVYRALQAALAESGGSPDVLQMLKIHRSDPQLIVQLRFCGRQPCGRFLRAYREGALRAALQRSLAAALAQHSVPLQLELRAGAERLDALLADEERCLSCILAQQPDRLRDEELAELEDALRNLKCGSGAR
For B1, the solubility (dithiothreitol (20 mM) required to prevent aggregation) was about 1000 µM and the sample stability (~1 mM, 20 mM dithiothreitol) was 6-8 weeks.
